Article PMC12084297, “Cytoplasmic connexin43-microtubule interactions promote glioblastoma stem-like cell maintenance and tumorigenicity” (Cell Death & Disease, 2025)
Ends that are not written are not given here. * marks the point of attachment. Biotin = O=C1N[C@H]2[C@H](CS[C@H]2CCCCC(=O)*)N1

Key:
α-tubulin = α-tubulin (human (endogenous in VTC-037 GSCs), UniProt P68363 1-451); assay: cellular thermal shift assay (CETSA); fresh VTC-037 GSC lysates in non-denaturing buffer treated 1 h with 3-fold dilutions (222.2, 74.0, 24.7, 8.2 and 2.7 nM) of peptide, heat challenge at 57 °C for 20 min, centrifugation, immunoblot of the stable protein normalised to DMSO control; EC50 of target engagement; details: one partner purified
Chain of α-tubulin (P68363 whole entry): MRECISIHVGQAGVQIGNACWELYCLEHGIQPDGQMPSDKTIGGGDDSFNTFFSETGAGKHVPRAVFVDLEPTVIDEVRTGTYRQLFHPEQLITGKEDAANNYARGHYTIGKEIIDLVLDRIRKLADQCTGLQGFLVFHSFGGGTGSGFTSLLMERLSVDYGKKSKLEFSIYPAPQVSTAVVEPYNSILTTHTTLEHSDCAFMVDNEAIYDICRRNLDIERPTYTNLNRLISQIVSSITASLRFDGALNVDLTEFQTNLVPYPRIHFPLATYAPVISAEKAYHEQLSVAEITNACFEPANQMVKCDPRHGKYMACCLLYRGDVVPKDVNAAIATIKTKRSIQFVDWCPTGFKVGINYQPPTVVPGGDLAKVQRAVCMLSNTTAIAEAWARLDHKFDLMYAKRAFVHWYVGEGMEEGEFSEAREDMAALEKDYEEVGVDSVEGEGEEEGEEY

β-tubulin = β-tubulin (human (endogenous in VTC-001 and …, UniProt P07437 1-444)); assay: as above; details: one partner purified
Chain of β-tubulin (human (P07437 whole entry): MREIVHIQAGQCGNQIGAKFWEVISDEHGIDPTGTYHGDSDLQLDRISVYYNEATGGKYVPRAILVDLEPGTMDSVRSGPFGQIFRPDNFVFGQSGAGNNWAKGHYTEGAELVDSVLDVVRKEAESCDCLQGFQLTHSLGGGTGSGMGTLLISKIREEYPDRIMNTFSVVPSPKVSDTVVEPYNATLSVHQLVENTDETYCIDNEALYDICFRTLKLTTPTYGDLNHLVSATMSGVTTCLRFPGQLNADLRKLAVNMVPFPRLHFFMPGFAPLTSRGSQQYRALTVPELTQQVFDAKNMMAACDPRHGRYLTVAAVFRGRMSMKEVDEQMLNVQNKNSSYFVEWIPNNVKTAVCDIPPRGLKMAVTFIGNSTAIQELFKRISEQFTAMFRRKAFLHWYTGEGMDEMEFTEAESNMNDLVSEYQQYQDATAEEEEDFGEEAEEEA

B1: JM2-scrambled peptide (peptide)
chain: Biotin-RQPKIWFPNRRKPWKKGSDVFKRKFVDRKVG
In the case of B1, the EC50 (α-tubulin) is reported as > 200 nM and the EC50 (β-tubulin) is reported as > 200 nM.
